Blank lines part the entries; values can stand above or below the compound they belong to.
Tests used:
Water solubility = type: physicochemical
erythrocytes = test: Haemolysis comparison test (extinction of supernatant at 576 nm); type: cell-based, human; conditions: 37°C, 20 min
Method: Of this stock solution, three dilutions were produced in accordance with Table 2 and their haemolytic action also investigated.
Production of the erythrocyte suspension: freshly taken human blood was diluted with approximately 5 times the volume of sterile 0.9% NaCl solution (batch designation: 9055A64 produced by the company Braun Melsungen) and centrifuged for 5 minutes at a relative centrifugal acceleration of 2000. The supernatant solution was then drawn off and the sedimented erythrocytes treated twice more in the same way.
The erythrocytes thus washed were counted in a Neubauer counting chamber and—where necessary—diluted again with sterile 0.9% NaCl solution to a final concentration of approx. 5·10^8 erythrocytes per ml. This suspension is according to DIN standard usable at room temperature for up to 6 hours.
Haemolysis comparison test: 5 ml of the solution to be tested was mixed with 1 ml of the above erythrocyte suspension, transferred to a cleaned centrifuge tube and incubated in a water bath at 37±1° C. for 20 minutes. Centrifuging was then performed for 5 minutes at a relative centrifugal acceleration of 2000.
The extinction of the supernatant liquid was measured. 5 ml of the 0.9% NaCl solution and the 5% glucose solution, which were mixed with 1 ml of the erythrocyte suspension, also incubated at 37±1° C. for 20 minutes and then centrifuged as above, served as negative controls.
For the test for haemolysis, the extinctions of the respective supernatants were measured in a photometer against the negative controls at a wavelength of 576 nm using a cuvette 10 mm in thickness. Owing to the differing stainings of the solutions, the extinction was also measured for the purpose of comparing the solutions without erythrocyte suspension.

Compound: Amphotericin B-HES Conjugate [Ampho HES]
- water solubility (Water solubility): > 0.1 g/5 ml H2O
- Extinction 576 nm (erythrocytes; amphotericin B 0.1 mg/ml in the test batch (0.12 mg/ml in the solution)): 0.027
- Extinction 576 nm (erythrocytes; amphotericin B 0.2 mg/ml in the test batch (0.24 mg/ml in the solution)): 0.061
- Extinction 576 nm (erythrocytes; amphotericin B 0.4 mg/ml in the test batch (0.48 mg/ml in the solution)): 0.274*)
- Extinction 576 nm (erythrocytes; amphotericin B 0.83 mg/ml in the test batch (1.00 mg/ml stock solution)): 2.452*)**)

- water solubility (Water solubility): virtually insoluble in water
Compound: C[C@@H]1[C@H](O)[C@@H](C)/C=C/C=C/C=C/C=C/C=C/C=C/C=C/[C@H](O[C@@H]2O[C@H](C)[C@@H](O)[C@H](N)[C@@H]2O)C[C@@H]2O[C@](O)(C[C@@H](O)C[C@@H](O)[C@H](O)CC[C@@H](O)C[C@@H](O)CC(=O)O[C@H]1C)C[C@H](O)[C@H]2C(=O)O [Amphotericin B, reference compound]

From US7115576B2, “Water-soluble antibiotic comprising an amino sugar, in the form of a polysaccharide conjugate” (Fresenius Kabi Deutschland GmbH, priority 2001, dated 2006)
